Measurements from US20210238283A1 (Y BIOLOGICS, published 2021).
Residue numbers refer to the chain shown, from its start.

T1: human LAG-3 overexpressed on cells (human, UniProt P18627 23-525)
T1 sequence (looked up): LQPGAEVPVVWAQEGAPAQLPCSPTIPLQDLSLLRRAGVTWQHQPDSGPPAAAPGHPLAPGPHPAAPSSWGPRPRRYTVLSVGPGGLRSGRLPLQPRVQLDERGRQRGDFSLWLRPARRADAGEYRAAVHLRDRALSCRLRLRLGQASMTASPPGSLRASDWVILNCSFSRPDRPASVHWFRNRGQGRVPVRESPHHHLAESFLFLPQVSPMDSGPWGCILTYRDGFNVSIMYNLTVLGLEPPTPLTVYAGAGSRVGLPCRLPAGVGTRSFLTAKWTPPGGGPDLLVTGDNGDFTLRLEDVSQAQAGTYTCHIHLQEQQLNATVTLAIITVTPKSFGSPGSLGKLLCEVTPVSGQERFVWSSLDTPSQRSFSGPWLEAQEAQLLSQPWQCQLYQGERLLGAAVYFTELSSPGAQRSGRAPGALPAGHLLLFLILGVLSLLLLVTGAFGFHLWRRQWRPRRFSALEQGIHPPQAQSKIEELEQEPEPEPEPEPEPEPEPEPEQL

T2: mouse LAG-3 overexpressed on HEK293E cells (mouse, UniProt Q61790 24-521)
T2 construct: whole, on cells; also called HEK293E-mLAG3; mLAG3 (Mouse)
T2 sequence (looked up): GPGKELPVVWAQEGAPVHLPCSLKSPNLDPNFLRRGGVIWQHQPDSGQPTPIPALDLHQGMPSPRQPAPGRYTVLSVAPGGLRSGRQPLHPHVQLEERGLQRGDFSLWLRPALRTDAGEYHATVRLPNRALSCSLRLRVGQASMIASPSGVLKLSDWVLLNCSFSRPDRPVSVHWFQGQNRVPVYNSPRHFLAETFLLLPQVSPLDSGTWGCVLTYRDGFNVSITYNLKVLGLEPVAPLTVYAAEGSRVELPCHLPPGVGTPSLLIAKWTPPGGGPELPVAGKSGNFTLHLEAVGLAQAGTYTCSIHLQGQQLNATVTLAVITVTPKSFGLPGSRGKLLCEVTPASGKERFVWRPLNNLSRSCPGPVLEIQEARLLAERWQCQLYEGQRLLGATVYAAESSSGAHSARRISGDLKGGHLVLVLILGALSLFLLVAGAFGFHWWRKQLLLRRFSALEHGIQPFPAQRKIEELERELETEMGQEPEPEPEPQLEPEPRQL

B1: LAG3-1E09_CDR_1D04 (antibody, V domains shown)
VH: EVQLVESGGDLVKPGGSLRLSCAASGFSFSDHYMNWIRQAPGKGLEWVAYIDTSATYIYYADSVKGRFTISRDNAKNSLYLQMNSLRAEDTAVYYCARDNWGSLDYWGQGTLVTVSS
VL: DIQMTQSPSSLSASVGDRVTITCQASQDISNYLNWYQQKPGKAPNLLIYDASNLETGVPSRFSGSGSGTDFTLTISSLQPEDFATYYCQQSYITPYTFGQGTKLDIK
notes: Tested as full IgG
B2: LAG3-1E09_FR_1F03 (antibody, V domains shown)
VH: B1 VH with D10G
VL: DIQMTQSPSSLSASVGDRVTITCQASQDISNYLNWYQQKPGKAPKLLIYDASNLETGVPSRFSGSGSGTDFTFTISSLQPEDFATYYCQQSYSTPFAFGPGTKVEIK
notes: Tested as full IgG
B3: LAG3-1E09_AM_2E09 (antibody, V domains shown)
VH: B1 VH with I37V, S54N
VL: DIQMTQSSSSLSASVGDRVTITCQASQDITDFLNWYQQKPGKAPKLLIYDASNLETGIPSRFSGSGSGREFTLTINSLQPEDVASYYCQQSYTTPLTFGGGTKVDIK
notes: Tested as full IgG
B4: LAG3-1E09_FR_1A10 (antibody, V domains shown)
VH: B1 VH with D10G
VL: DIQMTQSPSSLSASVGDRVTITCQANQDISNYLNWYQQKPGKAPKLLIYDASNLETGVPSRFSGGGSGTDFTLTINNLQPEDFATYYCHHSYNTPITFGQGTRLEIK
notes: Tested as full IgG
B5: LAG3-1E09_CDR_1E03 (antibody, V domains shown)
VH: B1 VH with S28T, S30N, S54T
VL: B1 VL with P8L, R18S, Q37R, N45E, A51T, I93S, T94I, L104V, D105E
notes: Tested as full IgG
B6: LAG3-1E09_LS_1G11 (antibody, V domains shown)
VH: B1 VH with K13Q, S28N, I37V, S54T
VL: B1 VL with S30D, N31K, N45K, I93S, Y96N
notes: Tested as full IgG
B7: LAG3-1E09_FR_1G07 (antibody, V domains shown)
VH: B1 VH with D10G, I37V
VL: DIQMTQSPSSLSASVGDRVTITCRASQGISTYLNWYQQKPGKAPKLLIYDASNLETGVPSRFSGSGSGTDFTLTISGLQPDDFALYYCQQSYTTPYSFGPGTKVEIK
notes: Tested as full IgG
B8: LAG3-1E09_AM_1F09 (antibody, V domains shown)
VH: B1 VH with S28N
VL: B1 VL with S30R, N34G, N53T, T74A, I93S, D105E
notes: Tested as full IgG
B9: LAG3-1E09_AM_2G11 (antibody, V domains shown)
VH: B1 VH with S30T, I37V
VL: DIQMTQSPSSLSASVGDRVTITCRASQSISYYLNWYQQRPGKAPKLLIYDASNLETGVPSRFSGSGTGTEFTLTISSLQPEDFATYYCQQSYSTPFAFGPGTKVEIK
notes: Tested as full IgG
B10: LAG3-1E09_LS_1E06 (antibody, V domains shown)
VH: B1 VH
VL: B1 VL with N31H, Q37R, N45K, D70L, I93S, D105E
notes: Tested as full IgG
B11: LAG3-1E09_AM_2H06 (antibody, V domains shown)
VH: B1 VH with S28T, I37V, S54I
VL: B1 VL with K39T, N45K, S91G, I93G, F98Y, D105E
notes: Tested as full IgG

biological target: T1, human LAG-3 overexpressed on cells; experiment: cell-based or functional assay

| EC50 (µg/ml), LAG3/MHC class II Blockade bioassay [µg/mL] | Binder |
| --- | --- |
| 0.655 | B1 |
| 0.485 | B2 |
| 0.482 | B3 |
| 0.811 | B4 |
| 1.06 | B5 |
| 1.51 | B6 |
| 0.242 | B7 |
| 0.488 | B8 |
| 0.246 | B9 |
| 0.151 | B10 |
| 0.606 | B11 |

biological target: T2, mouse LAG-3 overexpressed on HEK293E …; experiment: flow cytometry, HEK293E cells overexpressing mouse LAG-3
Procedure: (§1) After that, the cells were washed three times with PBS containing 2% FBS and then subjected to the reaction for 30 minutes at 4° C. with anti-human IgG antibody (#FI-3000, Vectorlabs) linked with FITC fluorescent. The cells were washed by the same washing process as above followed by suspension in 0.2 ml PBS containing 2% FBS. The cells were then analyzed by FACSCanto II flow cytometer.

| binding result | Binder |
| --- | --- |
| no binding (tested: 2 µg/ml) | B8 |

biological target: T2, mouse LAG-3 overexpressed on HEK293E …; experiment: flow cytometry, HEK293E cells overexpressing LAG-3, antibody 2 µg/ml
Procedure: as §1

| binding result | Binder |
| --- | --- |
| binds | B1 |
| binds | B2 |
| binds | B3 |
| binds | B4 |
| binds | B5 |
| binds | B6 |
| binds | B7 |
| binds | B9 |
| binds | B10 |
| binds | B11 |
